{"source": "patent US5336667A", "about": "“Method for inhibiting the ahesion of platelet with alboaggregins: platelet agonists which bind to platelet membrane glycoprotein IB” (Temple University of the Commonwealth System of Higher …, priority 1992, dated 1994)", "molecules": {"B1": {"name": "bovine von Willebrand factor (ligand)", "chain": "SLSCRPPMVKVVCPADNPRAEGLECTKTCQNYDLECMSTGCVSGCLPAPGMVRHENRCVALERCPCFHQGREYAPGDRVKVDCNSCVCQDRKWNCTDHVCDASCSALGLAHYFTFDGLKYLFPGECQYVLVQDHCGSNPGTFRVLVGNEGCSVPSLKCRKRITILVEGGEIELFD"}}, "key": {"[1]": {"target": "T1, alboaggregin B (AL-B), Trimeresurus albolabris venom (Trimeresurus albolabris, UniProt P81115+P81116)", "T1 sequence (P81115 24-156)": "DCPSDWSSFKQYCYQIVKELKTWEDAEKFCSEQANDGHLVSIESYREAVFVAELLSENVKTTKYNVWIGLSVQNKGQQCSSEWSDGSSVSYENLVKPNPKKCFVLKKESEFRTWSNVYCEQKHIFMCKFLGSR", "T1 sequence (P81116 24-146)": "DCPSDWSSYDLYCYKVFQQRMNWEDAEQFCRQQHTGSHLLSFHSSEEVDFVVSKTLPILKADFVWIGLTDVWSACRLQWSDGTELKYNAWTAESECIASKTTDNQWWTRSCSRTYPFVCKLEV", "assay": "Platelet agglutination induced by AL-B in the presence of inhibitors", "type": "cell-based", "procedure": "(§1) Agglutination of platelet-rich plasma, washed platelets and fixed platelets by AL-B was performed according to the method described by Kirby, J Lab Clin. Med. 100, 963-976 (1982). Platelet agglutination was assayed at 37° C. with constant stirring at 1200 RPM in an aggregometer and the extent of light transmission change was measured after two minutes. AL-B was added to suspensions of (A) fixed washed platelets or (B) washed platelets at final concentrations of (A) 0.2, 0.4, 0.6, 0.9 and 1.7 μg/ml and (B) 0.12, 0.24 and 0.48 μg/ml, respectively. The platelet concentration was approximately 3×10^8 platelets/ml in each suspension. AL-B agglutinated both fixed platelets and washed platelets in a dose-dependent manner. Once platelets were maximally agglutinated by AL-B, addition of bovine vWF gave no further response.\n(§2) Platelet agglutination induced by AL-A or AL-B was not inhibited by EDTA (10 raM) , soybean trypsin inhibitor (0.5 mg/ml) N-ethylmaleimide, (10 raM) or PGE1 (0.35 μM)."}, "[2]": {"tested_on": "alboaggregin A (AL-A), Trimeresurus albolabris venom, SEQ ID NOS: 1, 2, 3 and 4", "assay": "Platelet agglutination induced by AL-A in the presence of inhibitors", "type": "cell-based", "procedure": "as §1\nAll three alboaggregins agglutinated platelet rich plasma and fixed platelets directly. To induce the same amount of platelet agglutination by bovine vWF, twice as much vWF was required to obtain the same change in light transmission. […] Platelet agglutination activity of each of the alboaggregins was similar in terms of their EC50 values.\nas §2"}, "[3]": {"target": "T1, alboaggregin B (AL-B), Trimeresurus albolabris venom", "assay": "Effect of sugars on binding of AL-B to platelets (lectin test)", "conditions": "sugar at concentrations up to 5 mg/ml", "procedure": "Several galactose-specific lectins that agglutinate platelets have been reported in snake venoms. Their presence can be detected by inhibition of lectin-induced agglutination by galactose or other sugars. In order to determine whether the alboaggregins function as lectins, we examined the effects of eight different sugars (lactose, galactose, galactosamine, mannosamine, glucosamine, N-acetyl glucosamine, α-methyl glucoside and α-methyl mannoside) at concentrations up to 5 mg/ml.\nBinding of ^125 I-bovine vWF and 125I-alboaggregins to labeled platelets was carried out according to Kirby, J. Lab. Clin. Med. 100, 963-976 (1982). Platelets were diluted and incubated at 37° C. for at least 10 min. prior to performing binding studies. Radiolabeled proteins were diluted in Tris-saline buffer containing 1 mg/ml of BSA and preincubated with buffer or a sample to be tested for inhibitory activity. The platelet suspension (1.9×10^8 platelets/ml) was added to the radiolabeled protein (26 ng/ml) and incubated at 37° C. for different periods of time. Unlabeled AL-B (1.8 μg/ml or 8.6 μg/ml) was added to duplicate suspensions after 5 min. of incubation with ^125 I-AL-B. Platelets were separated from free ligand by centrifugation for 4 min. at 12000 g. Supernatant and pellets were counted in an […] gamma counter to determine the amount of free and platelet-bound radioactivity, respectively."}, "[4]": {"target": "human platelet membrane glycoprotein Ib (human) (UniProt P07359)", "assay": "direct binding of 125I-AL-C to platelets"}, "[5]": {"target": "human platelet membrane glycoprotein Ib (human) (UniProt P07359)", "assay": "unlabeled AL-C competing on platelets; competitor 125I-bovine vWF"}, "[6]": {"target": "human platelet membrane glycoprotein Ib (human) (UniProt P07359)", "assay": "unlabeled AL-C competing on platelets; competitor 125I-AL-B"}, "[7]": {"target": "human platelet membrane glycoprotein Ib (human) (UniProt P07359)", "assay": "unlabeled AL-C competing on platelets; competitor 125I-AL-A"}, "[8]": {"target": "human platelet membrane glycoprotein Ib (human) (UniProt P07359)", "assay": "unlabeled AL-C competing on platelets; competitor 125I-AL-C"}, "[9]": {"target": "human platelet membrane glycoprotein Ib (human) (UniProt P07359)", "assay": "radioligand competition on platelets; competitor 125I-echicetin"}, "[10]": {"target": "human platelet membrane glycoprotein Ib (human) (UniProt P07359)"}, "[11]": {"target": "human platelet membrane glycoprotein Ib (human) (UniProt P07359)", "assay": "Scatchard analysis of 125I-echicetin binding to fixed platelets, three experiments"}, "[12]": {"target": "human platelet membrane glycoprotein Ib (human) (UniProt P07359)", "assay": "radioligand competition on fixed platelets; competitor 125I-bovine vWF"}, "[13]": {"target": "human platelet membrane glycoprotein Ib (human) (UniProt P07359)", "assay": "Scatchard analysis of 125I-echicetin binding to fixed platelets"}, "[14]": {"target": "T2, human platelet membrane glycoprotein Ib (human, UniProt P07359)", "assay": "unlabeled bovine vWF competing on platelets; competitor 125I-bovine vWF"}, "[15]": {"target": "T2, human platelet membrane glycoprotein Ib", "assay": "unlabeled bovine vWF competing on platelets; competitor 125I-AL-B"}, "[16]": {"target": "T2, human platelet membrane glycoprotein Ib", "assay": "unlabeled bovine vWF competing on platelets; competitor 125I-AL-C"}, "[17]": {"target": "T2, human platelet membrane glycoprotein Ib", "assay": "unlabeled bovine vWF competing on platelets; competitor 125I-AL-A"}, "[18]": {"target": "T2, human platelet membrane glycoprotein Ib", "assay": "radioligand competition on platelets; competitor 125I-echicetin"}, "[19]": {"target": "T2, human platelet membrane glycoprotein Ib", "assay": "radioligand competition on fixed platelets; competitor 125I-bovine vWF (0.57 µg/ml)"}}, "data": [{"molecule": "O=C(O)CN(CCN(CC(=O)O)CC(=O)O)CC(=O)O", "note": "[EDTA]", "values": [{"measurement": "inhibition of platelet agglutination induced by AL-B", "setting": "[1]; EDTA 10 raM", "value": "not inhibited"}, {"measurement": "inhibition of platelet agglutination induced by AL-A", "setting": "[2]; EDTA 10 raM", "value": "not inhibited"}]}, {"molecule": "CC(=O)N[C@H]1C(O)O[C@H](CO)[C@@H](O)[C@@H]1O", "note": "(stereo partly drawn) [N-acetyl glucosamine]", "values": [{"measurement": "effect on the binding of AL-B to platelets", "setting": "[3]", "value": "None of these sugars showed any effect"}]}, {"molecule": "CCN1C(=O)C=CC1=O", "note": "[N-ethylmaleimide]", "values": [{"measurement": "inhibition of platelet agglutination induced by AL-B", "setting": "[1]; N-ethylmaleimide 10 raM", "value": "not inhibited"}, {"measurement": "inhibition of platelet agglutination induced by AL-A", "setting": "[2]; N-ethylmaleimide 10 raM", "value": "not inhibited"}]}, {"molecule": "CCCCC[C@H](O)/C=C/[C@H]1[C@H](O)CC(=O)[C@@H]1CCCCCCC(=O)O", "note": "[PGE1]", "values": [{"measurement": "inhibition of platelet agglutination induced by AL-B", "setting": "[1]; PGE1 0.35 μM", "value": "not inhibited"}, {"measurement": "inhibition of platelet agglutination induced by AL-A", "setting": "[2]; PGE1 0.35 μM", "value": "not inhibited"}]}, {"molecule": "N[C@H]1C(O)O[C@H](CO)[C@H](O)[C@@H]1O", "note": "(stereo partly drawn) [galactosamine]", "values": [{"measurement": "effect on the binding of AL-B to platelets", "setting": "[3]", "value": "None of these sugars showed any effect"}]}, {"molecule": "N[C@H]1C(O)O[C@H](CO)[C@@H](O)[C@@H]1O", "note": "(stereo partly drawn) [glucosamine]", "values": [{"measurement": "effect on the binding of AL-B to platelets", "setting": "[3]", "value": "None of these sugars showed any effect"}]}, {"molecule": "OC[C@H]1O[C@@H](O[C@H]2[C@H](O)[C@@H](O)C(O)O[C@@H]2CO)[C@H](O)[C@@H](O)[C@H]1O", "note": "(stereo partly drawn) [lactose]", "values": [{"measurement": "effect on the binding of AL-B to platelets", "setting": "[3]", "value": "None of these sugars showed any effect"}]}, {"molecule": "N[C@@H]1C(O)O[C@H](CO)[C@@H](O)[C@@H]1O", "note": "(stereo partly drawn) [mannosamine]", "values": [{"measurement": "effect on the binding of AL-B to platelets", "setting": "[3]", "value": "None of these sugars showed any effect"}]}, {"molecule": "CO[C@H]1O[C@H](CO)[C@@H](O)[C@H](O)[C@H]1O", "note": "[α-methyl glucoside]", "values": [{"measurement": "effect on the binding of AL-B to platelets", "setting": "[3]", "value": "None of these sugars showed any effect"}]}, {"molecule": "CO[C@H]1O[C@H](CO)[C@@H](O)[C@H](O)[C@@H]1O", "note": "[α-methyl mannoside]", "values": [{"measurement": "effect on the binding of AL-B to platelets", "setting": "[3]", "value": "None of these sugars showed any effect"}]}, {"molecule": "alboaggregin C (ligand)", "values": [{"measurement": "percent of total radioactivity added that bound", "setting": "[4]", "value": 78, "unit": "%"}, {"measurement": "IC50", "setting": "[5]", "value": 0.2, "unit": "µg/mL"}, {"measurement": "IC50", "setting": "[6]", "value": 1, "unit": "µg/mL"}, {"measurement": "IC50", "setting": "[7]", "value": 1.7, "unit": "µg/mL"}, {"measurement": "IC50", "setting": "[8]", "value": 0.3, "unit": "µg/mL"}]}, {"molecule": "echicetin (ligand)", "values": [{"measurement": "IC50", "setting": "[9]", "value": "> 0.5", "unit": "µg/mL"}, {"measurement": "concentration for 50% inhibition of AL-B-induced agglutination of fixed platelets", "setting": "[10]", "value": 1.05, "unit": "µg/mL"}, {"measurement": "concentration for 50% inhibition of botrocetin/human vWF-induced agglutination of fixed platelets", "setting": "[10]", "value": 1.1, "unit": "µg/mL"}, {"measurement": "concentration for 50% inhibition of bovine vWF-induced agglutination of fixed platelets", "setting": "[10]", "value": 0.4, "unit": "µg/mL"}, {"measurement": "concentration for 50% inhibition of bovine vWF-induced agglutination of washed platelets", "setting": "[10]", "value": 0.15, "unit": "µg/mL"}, {"measurement": "Kd", "setting": "[11]", "value": 30, "unit": "nM"}, {"measurement": "IC50", "setting": "[12]", "value": 0.2, "unit": "µg/mL"}, {"measurement": "binding sites per platelet (binding sites per platelet)", "setting": "[13]", "value": 45000}]}, {"molecule": "galactose", "values": [{"measurement": "effect on the binding of AL-B to platelets", "setting": "[3]", "value": "None of these sugars showed any effect"}]}, {"molecule": "B1", "values": [{"measurement": "IC50", "setting": "[14]", "value": 2.1, "unit": "µg/mL"}, {"measurement": "IC50", "setting": "[15]", "value": "> 10", "unit": "µg/mL"}, {"measurement": "IC50", "setting": "[16]", "value": "> 10", "unit": "µg/mL"}, {"measurement": "IC50", "setting": "[17]", "value": "> 10", "unit": "µg/mL"}, {"measurement": "IC50", "setting": "[18]", "value": "> 20", "unit": "µg/mL"}, {"measurement": "IC50", "setting": "[19]", "value": "~10", "unit": "µg/mL"}]}]}
